In patent KR20230078152A:

Target: human PSMA (prostate-specific membrane antigen) expressed on LNCaP cells (human) (UniProt Q04609)
Assay: flow cytometry on LNCaP cells, isotype control 10μg/mL, 4℃

Chain of human PSMA (prostate-specific membrane antigen) expressed on LNCaP cells (human) (Q04609 whole entry): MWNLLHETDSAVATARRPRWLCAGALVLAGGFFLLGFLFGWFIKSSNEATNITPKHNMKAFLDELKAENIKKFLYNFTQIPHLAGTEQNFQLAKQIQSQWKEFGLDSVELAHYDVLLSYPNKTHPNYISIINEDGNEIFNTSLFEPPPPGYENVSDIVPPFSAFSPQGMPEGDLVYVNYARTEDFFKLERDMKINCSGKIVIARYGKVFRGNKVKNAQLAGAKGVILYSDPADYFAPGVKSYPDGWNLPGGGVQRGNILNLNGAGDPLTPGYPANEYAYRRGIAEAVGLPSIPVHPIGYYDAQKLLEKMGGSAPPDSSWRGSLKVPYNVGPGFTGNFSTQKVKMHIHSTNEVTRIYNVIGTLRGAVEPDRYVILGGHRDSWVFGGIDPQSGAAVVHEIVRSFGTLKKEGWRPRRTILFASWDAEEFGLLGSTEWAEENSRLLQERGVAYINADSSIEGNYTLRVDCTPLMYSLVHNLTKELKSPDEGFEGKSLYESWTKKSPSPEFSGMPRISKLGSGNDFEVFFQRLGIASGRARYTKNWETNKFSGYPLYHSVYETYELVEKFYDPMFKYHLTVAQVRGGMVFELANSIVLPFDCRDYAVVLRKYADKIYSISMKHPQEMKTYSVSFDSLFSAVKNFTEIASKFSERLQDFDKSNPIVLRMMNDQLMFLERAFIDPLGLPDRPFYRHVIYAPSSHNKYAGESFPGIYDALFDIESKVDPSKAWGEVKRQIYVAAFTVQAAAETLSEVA

For “Mouse IgG Isotype Control (ThermoFisher, cat.No.02-6502) (antibody)”, which Mean FL is on record?
Its Mean FL is 3440 Mean FL.
